Peptide text beside a SMILES is read from it. * marks the point of attachment. Cbz = O=C(OCc1ccccc1)*; CH2F = FC*
Columns and labels:
human calpain I = biological target: T1, human calpain I (Homo sapiens, UniProt P07384); assay: In vitro calpain-mediated proteolysis reaction; assay type: biochemical; conditions: for JP2 degradation by calpain I: WT mouse heart lysates, 3 mM free Ca2+, Z-LLY-FMK 20 μM, EDTA 5 mM
T1 construct: purchased Calbiochem
T1 sequence (P07384 1-714): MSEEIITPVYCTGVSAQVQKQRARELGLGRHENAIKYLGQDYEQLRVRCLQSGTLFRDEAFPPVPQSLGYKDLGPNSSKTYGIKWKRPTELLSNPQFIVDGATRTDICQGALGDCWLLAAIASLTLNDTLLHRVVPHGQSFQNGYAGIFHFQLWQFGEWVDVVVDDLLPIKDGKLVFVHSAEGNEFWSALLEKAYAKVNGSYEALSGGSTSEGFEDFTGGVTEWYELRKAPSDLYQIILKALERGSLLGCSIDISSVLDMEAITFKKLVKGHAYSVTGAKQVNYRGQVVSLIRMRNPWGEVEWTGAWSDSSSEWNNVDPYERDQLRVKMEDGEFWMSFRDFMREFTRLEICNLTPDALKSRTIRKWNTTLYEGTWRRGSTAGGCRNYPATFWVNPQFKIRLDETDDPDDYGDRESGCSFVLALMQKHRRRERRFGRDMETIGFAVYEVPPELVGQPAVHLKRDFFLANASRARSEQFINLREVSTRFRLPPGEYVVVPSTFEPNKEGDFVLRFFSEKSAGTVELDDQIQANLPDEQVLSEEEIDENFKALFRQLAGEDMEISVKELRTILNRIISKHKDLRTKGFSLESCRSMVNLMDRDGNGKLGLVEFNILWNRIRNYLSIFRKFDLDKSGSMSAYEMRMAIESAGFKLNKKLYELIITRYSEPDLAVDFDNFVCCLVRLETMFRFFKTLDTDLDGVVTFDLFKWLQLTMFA
T1 sequence (P04632 1-268 partner): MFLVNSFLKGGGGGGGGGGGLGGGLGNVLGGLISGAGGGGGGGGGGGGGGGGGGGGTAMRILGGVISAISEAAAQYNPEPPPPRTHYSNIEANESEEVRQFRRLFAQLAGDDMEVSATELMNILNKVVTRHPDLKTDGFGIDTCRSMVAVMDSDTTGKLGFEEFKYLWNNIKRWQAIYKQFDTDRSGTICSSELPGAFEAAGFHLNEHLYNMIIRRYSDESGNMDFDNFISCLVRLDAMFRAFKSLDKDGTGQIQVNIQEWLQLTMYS
Method: Mouse and human heart tissues as well as HEK 293T cells (obtained from the ATCC and cultured according to the protocol of the manufacturer) overexpressing tagged JP2 were washed with PBS and homogenized in lysis buffer (20 mM Tris-HCl, 150 mM NaCl, 2 mM EDTA, and 1% Triton X-100), followed by sonication. Homogenates were centrifuged for 10 minutes at 14,000 rpm at 4° C. Protein content in the supernatant was determined using the BCA assay (Thermo Scientific). Cell extracts were diluted in ice-cold calpain reaction buffer (135 mM NaCl, 5 mM KCl, 1 mM MgCl2, 10 mM glucose, 10 mM Hepes (pH 7.25), 2 mM lactacystin, and 10 mM 2-mercaptoethanol) to a concentration of 4 mg protein/ml. Just prior to starting the protease reaction, CaCl2 was added to achieve a final concentration of 3 mM free Ca^2+ (in the presence of EDTA), as calculated by winmaxc32 (Stanford University). For some experiments, the free Ca^2+ concentration was adjusted to 500 μM, as calculated by winmaxc32. Purified human calpain I (Calbiochem) was added at a concentration of 1 mg of total protein/1 μg of calpain I. Reactions without Ca^2+ or without purified calpain I were used as controls. Reactions were incubated at 30° C. for the indicated time and stopped by adding EDTA to a final concentration of 10 mM and incubating for 5 minutes at 95° C. The reaction products were subjected to Western blotting.

[1] = system: MEF2C Response Element (MRE) from the desmin enhancer; assay: Gel shift assay with MEF2 response element; assay type: binding; conditions: purified protein
Text: FIGS. 12A-E. JP2NT represses MEF2-mediated transcription by competing for the MEF2 Response Element (MRE). A) Enrichment of MEF2 binding motifs in ChIP-seq dataset. B) Gel shift assay of JP2NT binding to a desmin promoter-derived DNA sequence containing a WT or mutated MRE in vitro. C) Co-immunoprecipitation of HA-tagged JP2NT binding to MEF2C or Histone H3. D) & E) MEF2 activity assays in 293T cells co-transfected with luciferase under the control of an MRE, MEF2C and WT JP2NT (D) or a mutant lacking the ARR (E, JP2NT^ΔARR). n≥3 independent batches of cells; in each batch of experiments, 3 replicates were performed for each transfection; **p<0.01 vs. Ad-Empty.
The MEF2 family, master regulators of hypertrophic genes in cardiomyocytes, binds to the A/T enriched consensus sequence (C/TTA(A/T)4TA G/A), which shares the same core sequence with TATA box. Thus, it was hypothesized that JP2NT directly interacts with MEF2 binding sites.

TATA box DNA sequences = assay: Gel shift assay with TATA box sequences; assay type: binding; conditions: GST-purified protein; cMyc or CMV promoter sequences
Text: FIGS. 11A-H. JP2NT is a TATA-box binding protein enriched at transcription start site (TSS) and interacts with basic transcription machinery. […] C) 293T cells were transfected with HA-tagged JP2NT, followed by crosslinking-reversal immunoprecipitation with anti-HA and immunoblotting with anti-polymerase II (Rpb1) or anti-TATA box binding protein (TBP). D-H) JP2NT binds to TATA box DNA sequences in vitro. D-E) Gel shift assays of GST-purified JP2NT binding to WT (D). or mutated TATA box-containing sequences (E) derived from the cMyc promoter. F) Summary of the results of gel shift assays with various of TATA box variants or mutants. Mutation of the core TATA sequences abolished the interaction with GST-JP2NT. G) Deletion of the ARR, but not the N-terminal MORN domains, eliminated JP2NT binding to the TATA box sequence. H) The peptide JP2^331-405 containing the ARR specifically binds to WT TATA box sequence.
TBP specifically binds to TATA boxes, eukaryotic core cis-regulatory elements localized at transcription start site. […] This interaction was abrogated by mutation of the TATA box elements (FIGS. 11E&G and 17B). It was concluded that JP2NT is a DNA binding protein, binding to consensus TATA box represented as TATAA(A/T) or TATATA (FIG. 11F).

RyR2 and Cav1.2 = assay: Coimmunoprecipitation with E-C coupling channels; assay type: binding, mouse; conditions: anti-HA immunoprecipitation
Text: FIGS. 5A-H. JP2 truncations are nonfunctional in regulating Ca^2+ transients. A) An antibody against the HA tag was used to reveal the localization of adenoviral expression of tagged full-length JP2 and truncations, as indicated, in adult wild-type cardiomyocytes. All the three version of JP2 can be localized in the striated pattern. B) Full-length JP2 and JP2(1-565) forms complexes with RyR2 and Cav1.2 In vivo. An antibody against HA was used for immunoprecipitation […]. The RyR2 and Cav1.2 that were pulled down were detected by Western blot analysis. […] IB, immunoblot. C) Adenovirus-mediated expression of full-length JP2, FLAG-JP2(1-565)-HA, and JP2(566-end)-HA in JP2-KD) cardiomyocytes. D) Representative steady-state Ca^2+ transients under 1-Hz field stimulation. The fluorescence intensity (F) of Ca^2+ imaging was normalized to the baseline (FO). The red lines overlapping on Ca^2+ imaging show the profile of the moment of Ca^2+ transient firing on the scanning line in a point-by-point way. A straighter line means better synchronization of the Ca^2+ transients. Note that expression of full-length JP2, but not JP2 truncations, improves the amplitude and synchronization of Ca^2+ transients. E-G) Summary of Ca^2+ transient amplitude, index of desynchronization (mean absolute deviation of firing time), and duration of 50% decay (T5) (n=68, 70, 70, and 52 for Ad-Empty, Ad-JP2, […], and Ad-JP2(566-end), respectively). Only full-length JP2 Improves the amplitude, synchronization, and decay of Ca^2+ transients. H) Summary of SR Ca^2+ content, which was assessed by caffeine-induced SR Ca^2+ release (n=17, 17, 17, and 12 for Ad-Empty, Ad-JP2, Ad-JP2(1-565), and Ad-JP2(566-end), respectively). **, p<0.01 versus indicated groups; N.S., not significant.
Cleavage at the primary calpain proteolysis site (Arg-565/Thr-566) splits apart the C-terminal SR-binding TM domain and N-terminal plasma membrane-binding MORN domains of JP2. […]

JP2-KD cardiomyocytes = assay: Confocal Ca2+ imaging in JP2-KD cardiomyocytes after adenoviral expression; assay type: cell-based, mouse; conditions: 1-Hz field stimulation
Text: Specifically, conditional shJP2 mice (provided by Dr. Wehrens) (van Oort et al., 2011) were crossed with mice carrying the cardiac-specific α-myosin heavy chain promoter upstream of Cre (% MHC-Cre, also FVB-Tg(Myh6-cre)2182Mds/J, The Jackson Laboratory). The shJP2 mice were maintained on a C57BL/6 background for more than 10 generations. The αMHC-Cre mice were maintained on an FVB background. PCR was used to genotype the offspring. The near complete depletion of JP2 protein in JP2-KD (αMHC-Cre X shJP2) hearts has been reported recently (Chen et al., 2013). JP2-KD mice were sacrificed at 2 months of age for isolation and culture of ventricular cardiomyocytes as described below.
Genecarrior-1 (Epoch Lab) was used to transfect plasmids into HEK293T cells. Isolation and culture of cardiomyocytes were performed as described previously (Guo et al., 2012). […] Ca^2+ Imaging experiments were performed 40 hours after adenoviral infection.
Cells were loaded with Rhod-2AM at 37° C. for 20 minutes, followed by washing with Tyrode's solution at room temperature for 15 minutes before Ca^2+ imaging. Confocal images were acquired using a ×63, 1.3 numerical aperture oil immersion objective mounted on a Zeiss LSM 510 confocal microscope. Confocal line scanning was used to record Ca^2+ signals. Steady-state Ca^2+ transients were recorded in Tyrode's solution containing 1.8 mM Ca^2+ under field stimulation of 1 Hz. At least five steady-state transients for each cell were analyzed and averaged to represent Ca^2+ signals of the cell. Ca^2+ imaging data were analyzed by using a home-complied software, CaTeasy, which is coded in MATLAB 2013a (Mathworks). Briefly, the program normalizes Ca^2+ transient images on a column-by-column basis (512 columns/image). The characteristic parameters of normalized transients were detected automatically. The firing time of every scanning pixel was detected column by column on the basis of the maximum local variability of pixel intensity. The profile of the point-to-point firing time was indicated by a red line overlapping on the Ca^2+ image. Index of desynchronization, defined by the mean absolute deviation of firing time of each scanning pixel (with every 8 pixels binned), was used to evaluate the dyssynchrony of Ca^2+ transients. This automated software for calcium transient analysis is available upon request.

O=C(O)CN(CCN(CC(=O)O)CC(=O)O)CC(=O)O [EDTA]
JP2 degradation by calpain I (human calpain I): inhibited JP2 degradation

CC(C)CC(NC(=O)OCc1ccccc1)C(=O)NC(CC(C)C)C(=O)NC(Cc1ccc(O)cc1)C(=O)CF (stereo not drawn) [Z-LLY-FMK] (Cbz-Leu-Leu-Tyr-CH2F; configuration not given here)
JP2 degradation by calpain I (human calpain I): inhibited JP2 degradation | JP2 cleavage products and full-length JP2 (human calpain I; lysates of 293T cells overexpressing FLAG/HA-tagged JP2, 3 mM and 500 μM Ca2+): substantial reduction in cleavage products and preservation of full-length JP2

B1: GST-JP2^331-405: purified peptide containing the ARR; DNA binding domain of JP2NT (protein, UniProt Q9ET78 331-405, looked up, fragment)
chain: EEGKYRHNVLVKGTKRRVLPLKSSKVRQKVEHGVEGAQRAAAIARQKAEIAASRTSHAKAKAEAAEQAALAANQE
modifications: GST tag
interaction with MEF2C Response Element (MRE) [1]: interacts | binding to TATA box (TATA box DNA sequences): specifically bound to the consensus but not mutant TATA box

B2: JP2(566-end): C-terminal JP2 truncation, tagged with HA at the C terminus (protein)
chain: TGPPEPPPLEDEQEPEPEPEPEVRRSDSAPPSPVSATVPEEEPPAPRSPVPAKQATLEPKPIVPKAEPKAKARKTEARGLSKAGAKKKGRKEVAQAKEAEVEVEEVPNTVLICMVILLNIGLAILFVHLLTYPYDVPDYA
interaction with RyR2 and Cav1.2 (RyR2 and Cav1.2): not | restoration of Ca2+ transients (JP2-KD cardiomyocytes): failed to restore
